The source of these data is article doi:10.1101/2024.10.03.616038 (bioRxiv, 2024).

The assay addresses 6P stabilised SARS-CoV-2 spike protein (SARS-CoV-2, original (Wuhan) strain, UniProt P0DTC2, stabilised). The assay can be described thus: cryo-EM structure. Particulars: both partners purified.

B1: REGN10987 Fab (Fab, V domains shown)
VH: QVQLVESGGGVVQPGRSLRLSCAASGFTFSNYAMYWVRQAPGKGLEWVAVISYDGSNKYYADSVKGRFTISRDNSKNTLYLQMNSLRTEDTAVYYCASGSDYGDYLLVYWGQGTLVTVSS
VL: QSALTQPASVSGSPGQSITISCTGTSSDVGGYNYVSWYQQHPGKAPKLMIYDVSKRPSGVSNRFSGSKSGNTASLTISGLQSEDEADYYCNSLTSISTWVFGGGTKLTVL
Take B1: the binding result is “binds”.
